{"source": "the supplement of paper PMC10567573", "parents": {"B1": {"name": "RHOBTB3 (parent)", "chain": "GGADIIVIKYNVNDKFSFHEVKDN"}}, "data": [{"variants_of": "B1", "assay": "protein stability index of a GFP-peptide fusion (GPS, HEK-293T) (PSI 1-6); higher = more stable", "conditions": "c terminus: a fixed tail appended", "values": [{"variant": "GGADIIVIHYNVNDKFSFHEVKDN", "note": "[K9H]", "protein stability index": 3.31}, {"variant": "GGADIIVIIYNVNDKFSFHEVKDN", "note": "[K9I]", "protein stability index": 4.01}, {"variant": "GGADIIVIKYNVNDWFSFHEVKDN", "note": "[K15W]", "protein stability index": 3.18}, {"variant": "GGADIIVIKYNVNDQFSFHEVKDN", "note": "[K15Q]", "protein stability index": 2.13}, {"variant": "GGADIIVIKYNVNDCFSFHEVKDN", "note": "[K15C]", "protein stability index": 4.37}, {"variant": "GGADIIVIKYNVNDGFSFHEVKDN", "note": "[K15G]", "protein stability index": 4.47}, {"variant": "GGADIIVIKYNVNDSFSFHEVKDN", "note": "[K15S]", "protein stability index": 2.73}, {"variant": "GGADIIVIKYNVNDEFSFHEVKDN", "note": "[K15E]", "protein stability index": 2.03}, {"variant": "GGADIIVIKYNVNDDFSFHEVKDN", "note": "[K15D]", "protein stability index": 4.13}, {"variant": "GGADIIVIKYNVNDKFSFHELKDN", "note": "[V21L]", "protein stability index": 2.72}, {"variant": "GGADIIVIKYNVNDKFSFHEMKDN", "note": "[V21M]", "protein stability index": 3.97}, {"variant": "GGADIIVIKYNVNDKFSFHETKDN", "note": "[V21T]", "protein stability index": 1.46}, {"variant": "GGADIIVIKYNVNDKFSFHENKDN", "note": "[V21N]", "protein stability index": 1.66}, {"variant": "GGADIIVIKYNVNDKFSFHEFKDN", "note": "[V21F]", "protein stability index": 3.01}, {"variant": "GGADIIVIKYNVNDKFSFHEPKDN", "note": "[V21P]", "protein stability index": 2.01}, {"variant": "GGADIIVIKYNVNDKFSFHEAKDN", "note": "[V21A]", "protein stability index": 3.15}, {"variant": "GGAEIIVIKYNVNDKFSFHEVKDN", "note": "[D4E]", "protein stability index": 4.16}, {"variant": "GGATIIVIKYNVNDKFSFHEVKDN", "note": "[D4T]", "protein stability index": 3.79}, {"variant": "GGAAIIVIKYNVNDKFSFHEVKDN", "note": "[D4A]", "protein stability index": 2.91}, {"variant": "GGAGIIVIKYNVNDKFSFHEVKDN", "note": "[D4G]", "protein stability index": 3.68}, {"variant": "GGAIIIVIKYNVNDKFSFHEVKDN", "note": "[D4I]", "protein stability index": 3.04}, {"variant": "GGADSIVIKYNVNDKFSFHEVKDN", "note": "[I5S]", "protein stability index": 3.31}, {"variant": "GGADWIVIKYNVNDKFSFHEVKDN", "note": "[I5W]", "protein stability index": 2.59}, {"variant": "GGADKIVIKYNVNDKFSFHEVKDN", "note": "[I5K]", "protein stability index": 2.67}, {"variant": "GGADHIVIKYNVNDKFSFHEVKDN", "note": "[I5H]", "protein stability index": 2.39}, {"variant": "GGADQIVIKYNVNDKFSFHEVKDN", "note": "[I5Q]", "protein stability index": 3.45}, {"variant": "GGADYIVIKYNVNDKFSFHEVKDN", "note": "[I5Y]", "protein stability index": 1.78}, {"variant": "GGADPIVIKYNVNDKFSFHEVKDN", "note": "[I5P]", "protein stability index": 3.58}, {"variant": "GGADEIVIKYNVNDKFSFHEVKDN", "note": "[I5E]", "protein stability index": 3.59}, {"variant": "GGADVIVIKYNVNDKFSFHEVKDN", "note": "[I5V]", "protein stability index": 1.43}, {"variant": "GGADDIVIKYNVNDKFSFHEVKDN", "note": "[I5D]", "protein stability index": 4.15}, {"variant": "GGADFIVIKYNVNDKFSFHEVKDN", "note": "[I5F]", "protein stability index": 1.78}, {"variant": "GGADIIVIKKNVNDKFSFHEVKDN", "note": "[Y10K]", "protein stability index": 1.82}, {"variant": "GGADIIVIKLNVNDKFSFHEVKDN", "note": "[Y10L]", "protein stability index": 3.82}, {"variant": "GGADIIVIKFNVNDKFSFHEVKDN", "note": "[Y10F]", "protein stability index": 2.26}, {"variant": "GGADIIVIKENVNDKFSFHEVKDN", "note": "[Y10E]", "protein stability index": 2.29}, {"variant": "GGADIIVIKGNVNDKFSFHEVKDN", "note": "[Y10G]", "protein stability index": 2.19}, {"variant": "GGADIIVIKDNVNDKFSFHEVKDN", "note": "[Y10D]", "protein stability index": 3.68}, {"variant": "GGADIIVIKVNVNDKFSFHEVKDN", "note": "[Y10V]", "protein stability index": 3.23}, {"variant": "GGADIIVIKCNVNDKFSFHEVKDN", "note": "[Y10C]", "protein stability index": 3.4}, {"variant": "GGADIIVIKINVNDKFSFHEVKDN", "note": "[Y10I]", "protein stability index": 4.15}, {"variant": "GGADIIVPKYNVNDKFSFHEVKDN", "note": "[I8P]", "protein stability index": 1.32}, {"variant": "GGADIIVKKYNVNDKFSFHEVKDN", "note": "[I8K]", "protein stability index": 3.96}, {"variant": "GGADIIVDKYNVNDKFSFHEVKDN", "note": "[I8D]", "protein stability index": 3.81}, {"variant": "GGADIIVFKYNVNDKFSFHEVKDN", "note": "[I8F]", "protein stability index": 1.44}, {"variant": "GGADIIVHKYNVNDKFSFHEVKDN", "note": "[I8H]", "protein stability index": 3.35}, {"variant": "GGADIIVMKYNVNDKFSFHEVKDN", "note": "[I8M]", "protein stability index": 1.89}, {"variant": "GGADIIVLKYNVNDKFSFHEVKDN", "note": "[I8L]", "protein stability index": 1.47}, {"variant": "GGADIIVAKYNVNDKFSFHEVKDN", "note": "[I8A]", "protein stability index": 1.78}, {"variant": "GGADIIVYKYNVNDKFSFHEVKDN", "note": "[I8Y]", "protein stability index": 1.59}, {"variant": "GKADIIVIKYNVNDKFSFHEVKDN", "note": "[G2K]", "protein stability index": 2.86}, {"variant": "GIADIIVIKYNVNDKFSFHEVKDN", "note": "[G2I]", "protein stability index": 1.52}, {"variant": "GQADIIVIKYNVNDKFSFHEVKDN", "note": "[G2Q]", "protein stability index": 1.86}, {"variant": "GEADIIVIKYNVNDKFSFHEVKDN", "note": "[G2E]", "protein stability index": 1.98}, {"variant": "GDADIIVIKYNVNDKFSFHEVKDN", "note": "[G2D]", "protein stability index": 2.31}, {"variant": "GHADIIVIKYNVNDKFSFHEVKDN", "note": "[G2H]", "protein stability index": 3.5}, {"variant": "GTADIIVIKYNVNDKFSFHEVKDN", "note": "[G2T]", "protein stability index": 2.38}, {"variant": "GRADIIVIKYNVNDKFSFHEVKDN", "note": "[G2R]", "protein stability index": 2.76}, {"variant": "GSADIIVIKYNVNDKFSFHEVKDN", "note": "[G2S]", "protein stability index": 1.62}, {"variant": "GGADIIVIKYNVNDKFSFHEVKDD", "note": "[N24D]", "protein stability index": 1.94}, {"variant": "GGADIIVIKYNVNDKFSFHEVKDL", "note": "[N24L]", "protein stability index": 3.07}, {"variant": "GGADIIVIKYNVNDKFSFHEVKDF", "note": "[N24F]", "protein stability index": 3.49}, {"variant": "GGADIIVIKYNVNDKFSFHEVKDI", "note": "[N24I]", "protein stability index": 2.21}, {"variant": "GGADIIVIKYNVNDKFSFHEVKDG", "note": "[N24G]", "protein stability index": 3}, {"variant": "GGADIIVIKYNVNDKFSFHEVKDM", "note": "[N24M]", "protein stability index": 3.25}, {"variant": "GGADIIVIKYNVNDKFSFHEVKDT", "note": "[N24T]", "protein stability index": 4.04}, {"variant": "GGADIIVIKYNVNDKFSFHEVKDE", "note": "[N24E]", "protein stability index": 1.44}, {"variant": "GGADIIGIKYNVNDKFSFHEVKDN", "note": "[V7G]", "protein stability index": 2.5}, {"variant": "GGADIIAIKYNVNDKFSFHEVKDN", "note": "[V7A]", "protein stability index": 2.17}, {"variant": "GGADIICIKYNVNDKFSFHEVKDN", "note": "[V7C]", "protein stability index": 1.79}, {"variant": "GGADIIKIKYNVNDKFSFHEVKDN", "note": "[V7K]", "protein stability index": 2.33}, {"variant": "GGADIILIKYNVNDKFSFHEVKDN", "note": "[V7L]", "protein stability index": 2.3}, {"variant": "GGADIITIKYNVNDKFSFHEVKDN", "note": "[V7T]", "protein stability index": 1.6}, {"variant": "GGADIIYIKYNVNDKFSFHEVKDN", "note": "[V7Y]", "protein stability index": 2.29}, {"variant": "GGADIINIKYNVNDKFSFHEVKDN", "note": "[V7N]", "protein stability index": 2.85}, {"variant": "GGADIIMIKYNVNDKFSFHEVKDN", "note": "[V7M]", "protein stability index": 2.06}, {"variant": "GGADIIHIKYNVNDKFSFHEVKDN", "note": "[V7H]", "protein stability index": 2.28}, {"variant": "GGADIIRIKYNVNDKFSFHEVKDN", "note": "[V7R]", "protein stability index": 1.67}, {"variant": "GGADIIVIKYNVNDKFSFHEVKWN", "note": "[D23W]", "protein stability index": 3.21}, {"variant": "GGADIIVIKYNVNDKFSFHEVKPN", "note": "[D23P]", "protein stability index": 3.16}, {"variant": "GGADIIVIKYNVNDKFSFHEVKMN", "note": "[D23M]", "protein stability index": 2.02}, {"variant": "GGADIIVIKYNVNDKFSFHEVKNN", "note": "[D23N]", "protein stability index": 2.44}, {"variant": "GGADIIVIKYNVNDKFSFHEVKIN", "note": "[D23I]", "protein stability index": 2.36}, {"variant": "GGADIIVIKYNVNDKFSFHEVKHN", "note": "[D23H]", "protein stability index": 3.28}, {"variant": "GGADIIVIKYNVNDKFSFHEVKGN", "note": "[D23G]", "protein stability index": 2.34}, {"variant": "GGADIIVIKYNVNDKFIFHEVKDN", "note": "[S17I]", "protein stability index": 2.65}, {"variant": "GGADIIVIKYNVNDKFAFHEVKDN", "note": "[S17A]", "protein stability index": 3.54}, {"variant": "GGADIIVIKYNVNDKFGFHEVKDN", "note": "[S17G]", "protein stability index": 2.54}, {"variant": "GGADIIVIKYNVNDKFVFHEVKDN", "note": "[S17V]", "protein stability index": 1.73}, {"variant": "GGADIIVIKYNVNDKFNFHEVKDN", "note": "[S17N]", "protein stability index": 3.14}, {"variant": "GGADIIVIKYNVNDKFCFHEVKDN", "note": "[S17C]", "protein stability index": 2.27}, {"variant": "GGADIIVIKYNKNDKFSFHEVKDN", "note": "[V12K]", "protein stability index": 1.82}, {"variant": "GGADIIVIKYNYNDKFSFHEVKDN", "note": "[V12Y]", "protein stability index": 2.38}, {"variant": "GGADIIVIKYNMNDKFSFHEVKDN", "note": "[V12M]", "protein stability index": 2.67}]}]}
